Source: the supplement of paper PMC10567573

B1: PPFIA4 (parent)
chain: YAGNLHESGVHGALLALDENFDHN
B2: ATE1 (parent)
chain: DYFPSEDFYRCGYCKNESGSRSNG

Variants of: B1
Assay: protein stability index of a GFP-peptide fusion (GPS, HEK-293T) (PSI 1-6); higher = more stable
Settings: c terminus: a fixed tail appended
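Further: lentivirally expressed fusions sorted by FACS into six bins by GFP to DsRed ratio, PSI derived from sequencing read proportions per bin multiplied by bin number.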

Protein stability index of substitutions, site by site:
E7: R 1.44, A 1.9, D 3.14, P 1.95, V 1.93, C 1.67, K 1.52, T 2.24, M 2.02, W 2.91, G 2, L 2.34, I 1.54, Y 1.85, Q 2.13, F 2.77, N 1.81, H 1.77, S 2.58
Y1: T 4.26, M 4.81, V 4.85, P 5.39, I 3.86, A 4.8, K 4.5, W 3.77, R 3.7, C 3.94, E 5.05, D 4.8, H 4.95, L 4.49, Q 4.64, F 2.04, N 4.81, S 5.03, G 5.06
A13: P 2.96, E 4.13, Y 3.02, T 2.86, D 4.32, R 2.41, N 2.66, Q 3.8, I 1.86, K 2.96, M 1.49, L 2.06, H 2.67, C 2.21, V 2.07, G 2.65, S 2.33, F 1.73, W 3.04
L14: R 3.31, M 3.07, D 4.59, P 4.03, Y 2.47, T 3.56, H 3.8, Q 4.02, S 3.45, K 3.15, V 2.16, E 3.83, A 3.27, C 2.36, I 1.97, N 3.8, F 1.81, G 3.63, W 1.43
L17: R 3.31, P 3.35, F 2.16, Q 3.37, K 3.24, I 2.02, D 4.18, N 3.86, C 3.21, G 3.4, M 2.96, H 4.06, E 4.52, A 3.43
G3: Y 1.99, R 2.72, C 2.64, V 3.11, Q 3.12, N 2.98, I 2.81, S 2.95, M 3.55, E 4.67, W 2.56, H 2.92, D 3.83, L 3.73, F 2.29, T 2.69, P 2.29, A 2.79, K 3.42
G12: E 3.78, M 2.59, C 2.13, N 3.68, W 3.02, F 2.32, S 3.28, H 2.71, I 1.94, V 1.95, K 2.97, A 2.77, L 2.73, Y 1.7, R 2.74, T 3.22, D 3.74, Q 3.56, P 2.11
S8: R 2.02, N 2.33, W 1.72, G 2.12, T 3.26, C 2.39, A 2.51, M 2.19, H 2.11, K 2.67, D 3.16, L 1.97, I 2.21, F 1.72, Y 2.28, P 2.49, Q 2.71, E 3.28, V 2.48
N4: W 1.67, L 2.33, A 2.48, E 3.82, V 2.18, I 2.53, C 2.03, S 1.87, P 2.77, R 1.93, Y 2.2, D 3.55, M 2.29, T 2.23, F 1.75, Q 3.69, H 2.73, G 2.65, K 2.09
A2: L 3.65, W 3.26, G 3.49, Q 3.23, I 2.12, E 4.19, R 4.27, Y 3.07, V 1.45, N 4.32, C 2.38, H 1.85, P 3.96, D 4.38, T 3.09, F 3.84, M 3.23, S 3.31, K 4.68
L15: R 2.8, F 2.2, E 4.23, C 3.06, P 4.09, N 3.89, I 2.22, D 4.06, M 2.93, G 3.54, K 3.46, Q 3.52, H 3.31, A 4.13, T 3.78, Y 2.31, V 3.29, S 3.87
G9: M 3.23, E 3.49, H 2.65, K 2.68, S 2.63, A 2.46, C 2.05, W 2.94, L 2.1, T 2.9, I 1.49, Q 2.82, N 3.1, V 2.98, Y 2.34, F 1.83, R 2.31, P 3.59, D 3.69
V10: M 1.79, D 4.04, N 3.23, F 2.25, S 3.09, I 2.23, T 3.09, R 2.79, H 2.7, E 4.11, Q 3.19, Y 2.31, A 3.11, L 2.35, W 2.73, C 2.06, G 2.8, K 2.97, P 2.94
A16: T 3.34, L 2.36, Y 2.06, K 2.73, C 2.39, H 3.25, F 3.06, V 2.31, Q 3.31, D 3.85, G 1.77, I 1.97, E 4.12, R 2.99, S 3.2, W 3.58, M 2.43, P 3.43, N 3.23
H6: A 2.78, T 2.83, Y 1.88, S 2.27, M 2.09, L 2.01, P 2.98, D 2.72, N 2.05, Q 2.19, G 2.82, C 2.92, E 3.7, I 2.23, R 1.92, V 2.5, F 1.99, K 2.24
L5: N 2.96, M 2.23, S 2.72, F 2.02, G 2.21, W 3.46, K 2.86, Y 1.82, V 2.12, R 3.11, A 2.56, I 1.94, T 2.84, P 2.94, E 4.34, D 3.71, H 2.38, Q 2.94, C 2.58
H11: W 3.06, K 3.33, P 2.57, G 3.35, M 1.87, N 2.83, Y 2.35, L 1.76, A 3.06, C 1.22, F 2.49, V 1.88, E 3.19, Q 3.59, D 4.25, I 1.66, R 2.46, S 2.9, T 2.59

Variants of: B2
Assay: as above
Settings: c terminus: a fixed tail appended

Protein stability index: each site, then its substitutions
G19: K 1.95
S22: Q 2.6
C11: T 4.55
E6: Q 1.92, W 2.04
D7: I 1.11, A 1.63
F3: C 1.49
D1: I 1.23
E17: L 2.17
S18: H 1.95
G24: K 2.83, Y 2.13
K15: D 2.74, F 2.65, H 1.64, Y 2.89
S5: C 1.52
